Laboratory results: patent US20160039933A1 (OXFORD BIOTHERAPEUTICS, published 2016)

Columns and labels:
[1] = target: T1, Cadherin-17 protein (92 kDa) in lysates of colorectal cancer cell lines (human, UniProt Q12864 23-832); experiment: Western blot of colorectal cancer cell line lysates, antibody diluted 1:500
T1 construct: Same natural protein as m15, here denatured on a Western blot (band at 92 kDa); also called CDH17
T1 sequence (looked up): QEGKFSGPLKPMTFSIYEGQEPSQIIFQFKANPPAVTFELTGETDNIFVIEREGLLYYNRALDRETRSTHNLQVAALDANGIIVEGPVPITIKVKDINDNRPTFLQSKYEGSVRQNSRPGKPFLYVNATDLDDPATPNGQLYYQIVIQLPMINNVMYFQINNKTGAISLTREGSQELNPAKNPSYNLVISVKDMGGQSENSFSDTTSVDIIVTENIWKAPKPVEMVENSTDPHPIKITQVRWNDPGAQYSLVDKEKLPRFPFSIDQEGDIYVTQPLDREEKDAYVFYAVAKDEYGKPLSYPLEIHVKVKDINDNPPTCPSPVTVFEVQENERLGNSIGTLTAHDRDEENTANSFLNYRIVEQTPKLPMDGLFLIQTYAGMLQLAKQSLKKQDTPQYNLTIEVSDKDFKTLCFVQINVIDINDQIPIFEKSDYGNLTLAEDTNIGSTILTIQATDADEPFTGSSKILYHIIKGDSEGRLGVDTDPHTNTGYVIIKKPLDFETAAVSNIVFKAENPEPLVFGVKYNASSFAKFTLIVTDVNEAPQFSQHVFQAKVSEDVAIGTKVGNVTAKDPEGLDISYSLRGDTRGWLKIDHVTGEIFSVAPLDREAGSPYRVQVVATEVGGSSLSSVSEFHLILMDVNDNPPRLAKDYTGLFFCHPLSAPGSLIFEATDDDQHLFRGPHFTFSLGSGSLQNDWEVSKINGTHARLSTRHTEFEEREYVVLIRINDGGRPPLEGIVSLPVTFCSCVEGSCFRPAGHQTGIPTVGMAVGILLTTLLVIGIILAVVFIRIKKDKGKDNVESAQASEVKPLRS
Protocol: Snap frozen cell pellets were lysed in modified RIPA buffer (50 mM Tris-HCl, pH 7.4, 1% NP-40, 0.25% Na-deoxycholate, 150 mM NaCl, 1 mM EDTA) containing protease inhibitors (Roche) and cleared by spinning down at 18,000 g for 15 min at 4 C. The 4×LDS sample loading buffer (Invitrogen Inc.) was added to the cleared lysate to a final concentration of 1×; sample was heated for 10 min at 70° C. and kept at −80° C. afterwards. Before loading on a gel samples were re-heated.
Membrane was incubated with animal-free blocker (Vector) and probed with anti-Cadherin-17 antibody in animal-free blocker at 1:500 dilution, at 4 C, for 14-18 h, rotating. The secondary was anti-mouse DyLight® 488 conjugate (Pierce).
A clear signal was detected at a size corresponding to the Cadherin-17 protein (92 kDa) in 11 of the 14 chosen colorectal cell lines for all 5 Cadherin-17 antibodies (PTA001_A3, PTA001_A4, PTA001_A6, PTA001_A8 and PTA001_A9). […] Cell lines were carefully selected for different genetic backgrounds relevant to the initiation and progression of CRC (RER+=replication error positive tumor phenotype; RER−=replication error deficient tumor phenotype; p53 wild type or mutant and APC wild type or mutant genotype).

[2] = target: T2, cell-surface human Cadherin-17 (human, UniProt Q12864 23-832); experiment: flow cytometry (FACS) on LoVo cells, antibody titration 0.005-10 ug/ml
T2 construct: whole, on cells; Endogenous protein on cells; also called Liver-intestine cadherin; LI-cadherin
T2 sequence (looked up): T1 sequence (looked up)

B1: PTA001_A4 monoclonal antibody (Fab, V domains shown)
VH: EVQLQQSVAELVKPGASVKMSCKVSGYTLTDHTIHWMKQRPEQGLEWIGYIYPRDGITGYNEKFKGKATLTADTSSSTAYMQLNSLTSEDSAVYFCARWGYSYRNYAYYYDYWGQGTTLTVSS
VL: DIVMSQSPSSLAVSVGEKVTMSCKSSQSLLHSSNQKNYLAWYQQKPGQSPKVLIYWASTRESGVPDRFTGSGSGTDFTLTITSVKSEDLAVYYCQQYYSYPWTFGGGTRLEIKR
- binding result [1]: binds
- binding result [2]: binds
